Data taken from the DeepSol protein solubility set.

assay: soluble on expression in E. coli; label from the status in PepcDB or PDB records

| Sequence | soluble on expression in E. coli |
| --- | --- |
| LTCYGDSGQPVDWFVVYKLPALRGSGEAAQRGLQYKYLDESSGGWRDGRALINSPEGAVGRSLQPLYRSNTSQLAFLLYNDQPPQPSKAQDSSMRGHTKGVLLLDHDGGFWLVHSVPNFPPPASSAAYSWPHSACTYGQTLLCVSFPFAQFSKMGKQLTYTYPWVYNYQLEGIFAQEFPDLENVVKGHHVSQEPWNSSITLTSQAGAVFQSFAKFSKFGDDLYSGWLAAALGTNLQVQFWHKTVGILPSNCSDIWQVLNVNQIAFPGPAGPSFNSTEDHSKWCVSPKGPWTCVGDMNRNQGEEQRGGGTLCAQLPALWKAFQPLVKNYQPCNGMARKPSRAYKI | soluble |
| MSLNPKILEKWMAEGQVTLPQVLVKNYATIGLNEVELVLLLQIQSFAAEAEFFPSMEMLTNRTTLPLEETIKTMDSLLKKGVIAIEQSQDNSRMISEQYNLAPLWGKLVALYENKEADSKHEKELEKQTSLYTLFEAEFGRPLSPMEAEMLSAWVEQDRTSPDLIKEALKEAVISQKLNFRYIDRILLNWSKQGVKTIEDAKRVAEEFHQNGRTSQAINQTEVKKSAGSIPLYDWLEKRKGEGHHHHHH | soluble |
| MGSDKIHHHHHHMKKFLENSIHQAIKACFFFLGKLPKKKLFIFESFHGKQYSDNPRAIFEYIRDNCPEYQCIWAVKKGYEMPFVEENVPFVKRLSWRWLWLMPRAQYWVFNTRMPAWMYKNQTTIYIQTWHGTPLKKLGLDIETVKMPEHETESYKLEVIQEAKRWDYLISPNAYSTRVFRQAFHYEGEILEIGYPRNDLLVCENKDKIAFSVRNQLGLAANKKIILYAPTWRDDESIRKGAYRFTNHLPVEQLLEIDSSIVILTRLHYLIAESFDISAFGSRVIDVSSYPDINQLYLIADLLITDYSSVMFDFALTKKPMLFFMYDKEKYQNSTRGFYFDPTAILPGKIVTDTDSLVTSVKNVLFSKTEQEQRLYVQFFREFCLENQDATRQLISEILKR | not soluble |
| RKGHFSRCPKQYKHYCIKGRCRFVVAEQTPSCVCDEGYIGARCERVDLFY | soluble |
| MSLAELAAVPAAPDDRLYSADNTQSSGETIRHLTWSGYEAANVQRPFEKKFDCQTGVDLFTSNLDAFNRLDDGAWREFDHATFDMAWLPDLAEAGLIRPLDYEAWKPYTFDKYTDLFQRENGYEFAFLDEDYNFDADGQLYGVPQRFGWASFALNTDVVSESDARSYDAAWADEYDVGVYDLPFWGVQIVMLREGIDPYATHTDAEVERIREATVALFENAAGVYADVGSLNTALAAGDIDIAFVSGNWINGSLRRGGRFEYEARVPDEGGVIWVETTTMLKGSHPSVSTNYLAYMQHGITAKNLMWPTVGGTNVVPHQSSIDRLNRRQRTVLRIDDLQDIIDKSRFYTGEGHHHHHH | soluble |
| MSLSDKTMTADEAVSRLRSGMTLGIGGWGSRRKPMALVRALLRSGITDLTVVSCGGPDVGMLAAAGRIRKLVAAFVTLDSIPLEPHYRAARERGALELMEIDEAMFLWGLRAAAGRLPFLPVRAGIGSDVMRVNPGLRTITSPYVDGETFVAMPALRLDAALVHLNRADRLGNGQYLGPDPYFDDLFCEAADTAYVSCERVVDTAELTKEAAPQTLLVKRHTVTGVVEAEGHHHHHH | not soluble |
| MGSDKIHHHHHHMNKEAIESLLIHVIGTDVIVNEVRPIGGGNTSRAFAVKSSQGNFFIKTNRAGLVDMFEKEVKNLELLRKVLPSNTPEVVGYGTIDHVSYFILKLIEPGRRVADFWSDFGRTLSELHRVTGNTFGLEYDNYIGSLPQSNKQNSNWVDFFVNERIWPQAKKAEKVLGTEIVGMISKLSDRLPDLLTQSRPTLLHGDLWSGNFTLNQAGTVCLVDPATYYGNREIEIAFTKLFGGFEDEFYAAYSEVLPLDKGFFDTRADIYNLYPLLVHVNLFGGWYVASVRETLKRFV | not soluble |
| GPGSSAHAPEGKRATKTELGSTSLYVRVGQLTNLRRHPDADRLYVEDMVLGDETRTIVSGLVESYAIEELEGTQCLVVCNMKPKSLMGVTSQGMVLCAKRDTEVKLIRPPAGAKPGDRILFGASYDAAIAAAAPPEPISSNKMSEVLSHLHTNADSVLCWKDEPARHPSGAAVAIADMANCPVS | soluble |
| MKVEPYRLVVNEHQVNNTNSKENLKIVQLSDLHIKKDFNADRLDKVIQKTNEQNPDFIIFSGDLYDNYSQYNENEAVISKLKSLKAKYGKIAIWGNRDYGGGAVKEYANIMAESDFSLLRNENQVFTLDNGKKILFTGLDDALLGNPQFPSPNQMAETSYDILLTHEPDEVSQYQNKGYELILSGHSHGGQINVPLIPQIQKKATALMSHANNYTGGLYQLGANEKLYVNTGIGTTHLSARFGVAPEIAVLTFLEHHHHHH | not soluble |
| HMARSLYPLGVSRSLPPYRRTFNHQTFIFVKSILRLGVSMEEEEFDIREALANGEHLEKILIMAKYDESVLKKLIELLDDDLWTVVKNAISIIMVIAKTREDLYEPMLKKLFSLLKKSEAIPLTQEIAKAFGQMAKEKPELVKSMIPVLFANYRIGDEKTKINVSYALEEIAKANPMLMASIVRDFMSMLSSKNREDKLTALNFIEAMGENSFKYVNPFLPRIINLLHDGDEIVRASAVEALVHLATLNDKLRKVVIKRLEELNDTSSLVNKTVKEGISRLLLLEGHSSS | soluble |
| MAHHHHHHMEDGEALDLQDALKPEVKERPVRLIKIERHDGTKAFLNSVIEMAQVVLDNMPPDACYKDIAIKLKTKLDEVEKGTWHVIVGSHFGANVTNDSETLVNFKIDEMHILLFRSGPPERPMSLNDEGS | soluble |
| MDGLFEFCQLSTGGSVAGAVKLNRQQTDMAVNWAGGLHHAKKYEASGFCYVNDIVLAILELLKYHQRVLYIDIDIHHGDGVEEAFYTTDRVMTVSFHKYGEYFPGTGDLRDIGAGKGKYYAVNFPMCDGIDDESYGQIFKPIISKVMEMYQPSAVVLQCGADSLSGDRLGCFNLTVKGHAKCVEVVKTFNLPLLMLGGGGYTIRNVARCWTYETAVALDCEIPNELPYNDYFEYFGPDFKLHISPSNMTNQNTPEYMEKIKQRLFENLRMLPHAPGVQMQAIPEDAVHEDSGDEDGEDPDKRISIRASDKRIACDEEFSDSEDEGEGGRRNVADHKKGAKKARIEEDKKETEDKKTDVKEEDKSKDNLEHHHHHH | soluble |
| MDERRKRKAKDQLSPYSNPDEENDRHNTAIEPSPSASRKRAKARVGDLGTIADSGPLKGVLSSVNILKPRIRSDRISGLNRCFVNAVQKVVEKESNKSLLYLFRQYEKYYEELNEASD | not soluble |
| GSHMTIQKVHGREVLDSRGNPTVEVEVTTEKGVFRSAVPSGASTGVYEACELRDGDKKRYVGKGCLQAVKNVNEVIGPALIGRDELKQEELDTLMLRLDGTPNKGKLGANAILGCSMAISKAAAAAKGVPLYRYLASLAGTKELRLPVPCFNVINGGKHAGNALPFQEFMIAPVKATSFSEALRMGSEVYHSLKGIIKKKYGQDAVNVGDEGGFAPPIKDINEPLPILMEAIEEAGHRGKFAICMDCAASETYDEKKQQYNLTFKSPEPTWVTAEQLRETYCKWAHDYPIVSIEDPYDQDDFAGFAGITEALKGKTQIVGDDLTVTNTERIKMAIEKKACNSLLLKINQIGTISEAIASSKLCMENGWSVMVSHRSGETEDTYIADLVVALGSGQIKTGAPCRGERTAKLNQLLRIEEELGAHAKFGFPGWS | soluble |
| MKLVKLSLVAALAAGAFSAANATPLEEAIKDVDVSGVLRYRYDTGNFDKNFVNNSNLNNSKQDHKYRAQVNFSAAIADNFKAFVQFDYNAADGGYGANGIKNDQKGLFVRQLYLTYTNEDVATSVIAGKQQLNLIWTDNAIDGLVGTGVKVVNNSIDGLTLAAFAVDSFMAAEQGADLLEHSNISTTSNQAPFKVDSVGNLYGAAAVGSYDLAGGQFNPQLWLAYWDQVAFFYAVDAAYSTTIFDGINWTLEGAYLGNSLDSELDDKTHANGNLFALKGSIEVNGWDASLGGLYYGDKEKASTVVIEDQGNLGSLLAGEEIFYTTGSRLNGDTGRNIFGYVTGGYTFNETVRVGADFVYGGTKTEAANHLGGGKKLEAVARVDYKYSPKLNFSAFYSYVNLDQGVNTNESADHSTVRLQALYKF | soluble |
| PSQDPRTPGGSEWRETGPQFRCLPPVPADMVFLVDGSWSIGHSHFQQVKDFLASVIAPFEIGPDKVQVGLTQYSGDAQTEWDLNSLSTKEQVLAAVRRLRYKGGNTFTGLALTHVLGQNLQPAAGLRPEAAKVVILVTDGKSQDDVHTAARVLKDLGVNVFAVGVKNADEAELRLLASPPRDITVHSVLDFLQLGALAGLLSRLICQRLQGGSPRQGPAAAPALDTLPAPTSLVLSQVTSSSIRLSWTPAPRHPLKYLIVWRASRGGTPREVVVEGPAASTELHNLASRTEYLVSVFPIYEGGVGEGLRGLVTTAPLPPPRALTLAAVTPRTVHLTWQPSAGATHYLVRCSPASPKGEEEEREVQVGRPEVLLDGLEPGRDYEVSVQSLRGPEGSEARGIRARTPTLAPPRHLGFSDVSHDAARVFWEGAPRPVRLVRVTYVSSEGGHSGQTEAPGNATSAMLGPLSSSTTYTVRVTCLYPGGGSSTLTGRVTTKKAPSPSQLSMTELPGDAVQLAWVAAAPSGVLVYQITWTPLGEGKAHEISVPGNLGTAVLPGLGRHTEYDVTILAYYRDGARSDPVSLRYTPSTVSRSPPSNLALASETPDSLQVSWTPPLGRVLHYWLTYAPASGLGPEKSVSVPGARSHVTLPDLQAATKYRVLVSAIYAAGRSEAVSATGQTACPALRPDGSLPGFDLMVAFSLVEKAYASIRGVAMEPSAFGGTPTFTLFKDAQLTRRVSDVYPAPLPPEHTIVFLVRLLPETPREAFALWQMTAEDFQPLLGVLLDGDVGPASPPAVRRSRGREAPEPWEAFRGSPASRPGPQHPLGGRQVSRAGGCGPH | soluble |
| MGSDKIHHHHHHMNLTIRQFRAFLAVADLRSFTAASKYLCITQGAVSGLINEMESQMEVSLFDRTSRVVKLSPDGEKFLPAAMRVVEEFQRAENYARDLKEIKKSLVRVVGAPLIACAFLPQIIHAFKRQHPHTHVQLIDKPMSQLQKSIMLGEADFGIGPERPLEPEIDKQTLFTTEIALYCHPDYRLHKKTVRWEEIQSEELIAVGNESIPMISATAGVRIKPKMTVEHMATAMSLAAQCEGVVIAGTFSRHYAKSYQLATCSLTPPLRRNMNLYFHAWRAQTPATQRFRDFLFSYVDEHHDAPANQR | not soluble |
| VDEIGELADSFNTLTKRVQEAQAMTEGERRKLSSVLAYMTDGVIATDRRGKVILINTPAEKMLRVKHESANGRSIIDVLDIGDTYQFEDLMEVDGSLTMDRSTLDKPYVLRANFSVIQRETG | not soluble |
| MGSDKIHHHHHHMARANRHYIPGQVWHITHRCHKKEFLLKFARDRRRWLHWLFEAKKRFGLQVLNYAVTSNHVHLLVVDTKPEVVAKSIQLIAGRTAQEFNQRKDRKGAFWEDRYHATAIERNEHLVRCLVYIDLNMVRAGVVTHPAEWEMNGYNEIQNPPDRYAIIDRHSLFDACGFPDYGSFAEQHRKWVEDALKKGMNREGHWTESIAVGSSAFITDTQRKMGCSAKGRKLEEQVDGASFLREDAEPYHAHFTGKSEVLSPENAFFWDDYDVVPVG | not soluble |
| MIDKSGYRANVAIVLLNKQNRVFWGQRRNRTSWQFPQGGVATGETPLQAMYRELHEEIGLRPQDVEVIASTRDWYKYDIPDSLVRTKEPICIGQKQKWFLLKLKSPESYIDLDANDSPEFDNWRWVSYWYPINHVVYFKQEVYRKALTYFKEYIA | not soluble |
